Data from patent US20130260436A1, “Methods of Identifying and Characterizing Natural Product Gene Clusters” (Victoria LInk Limited, priority 2010, published 2013).

How the values were obtained:
[1] = system: BpsA, single module non-ribosomal peptide synthetase of Streptomyces lavendulae ATCC 11924, purified recombinant 6His-tagged protein (apo form)
[2] = system: wild type BpsA reporter expressed in E. coli BL21(DE3) from a pCDFDuet-based plasmid (slBPSA)
[3] = system: E. coli harbouring an activating PPTase; assay: In vivo pigment synthesis activity of BpsA derivatives relative to wild type BpsA; type: cell-based; details: E. coli, supernatant A590
Text: A detailed description of the method used for generation of mBpsA derivatives is given in Section 4.15. Briefly, a plasmid containing bpsA lacking its native T-domain (pBPSA3) was created. This plasmid contained restriction enzyme sites which were subsequently used to introduce foreign T-domain sequence. Foreign T-domains were then amplified from the chromosomal DNA of their host organisms and introduced into pBPSA3 to generate mBpsA derivatives which contained T-domains from foreign NRPS proteins in place of the native T-domain. Only the final embodiment of the T-domain swapping platform is described in this application. This embodiment is the result of rational in-silico design as well as trial and error, which are not described. Using this final platform, five different mBpsA derivatives were generated and subsequently assessed for in vivo pigment synthesis capacity in E. coli harbouring an activating PPTase. Table 3.1 gives a summary of the mBpsA derivatives generated as well as their in vivo pigment synthesis activities relative to wild type BpsA. The derivation of in vivo pigment synthesis activity was as described in 4.10.
For second tier screening, up to 45 improved clones, along with a positive and negative control, were stored as duplicate glycerol stocks in a 96wp. From this plate duplicate overnight cultures were established in LB supplemented with 0.4% glucose and appropriate antibiotics. […] Overnight cultures were grown for 16-20 h (37° C. 200 rpm) before transfer of 20 μl of each culture into a fresh well containing 130 μL LB supplemented with 115 mM L-Gln, 0.6 mM IPTG and appropriate antibiotics. Assay plates set up in this fashion contained duplicate cultures for each clone from two separate overnights. Assay plates were then wrapped in foil and incubated for 6-24 h (18° C., 200 rpm), depending on activity of improved clones. After incubation cells were collected at the corner of each well by centrifugation and OD 590 values determined using a microplate reader. Assays were repeated at least twice before determination of clones for sequence analysis.
In vivo pigment synthesis efficiencies for recombinant BpsA proteins described in Section 3.2 were derived from three separate assays. This was necessary due to the fact that pigment synthesis of wild type BpsA saturate before activity of mBpsA derivatives was detectable. Replicate cultures for determination of in vivo pigment synthesis activity were established from overnight starter cultures in a 96 wp as described in Section 4.9.3 The values presented are derived as follows: quadruplicate values for WT BpsA and oBpsA (mutant with reduced activity) were determined after 3 h, at which point pigment production was not saturated for WT. A separate quadruplicate assay was then run to obtain a value for slEntF by comparison to oBpsA after 12 h. Quadruplicate values for slPsT and slPvdD2 were then obtained in a separate assay by comparison to slEntF after 12 h.

Molecule | Km (BpsA as variable substrate), BpsA coupled indigoidine assay [1] [µM] | kcat (BpsA as variable substrate), BpsA coupled indigoidine assay [1] [s⁻¹] | kcat/Km (BpsA as variable substrate), BpsA coupled indigoidine assay [1] [M⁻¹ s⁻¹] | production of indigoidine on co-expression in E. coli BL21(DE3) [2] | Relative activity (in vivo pigment synthesis relative to wild type BpsA) [3] [%]
PP1183, putative phosphopantetheinyl transferase of Pseudomonas putida KT2440 | 8.6 | 0.185 | 21500 | co-expression of BpsA with any of the three PPTases selected (Sfp, PcpS and PP1183) resulted in substantial production of indigoidine | 
Sfp, phosphopantetheinyl transferase of Bacillus subtilis subsp. spizizenii ATCC6633 | 3.3 | 0.0357 | 10800 | co-expression of BpsA with any of the three PPTases selected (Sfp, PcpS and PP1183) resulted in substantial production of indigoidine | 
slPsT1: mBpsA with T-domain from pspph1926 gene of P. syringae 1448a; SEQ ID NO: 9 (protein) MTLQETSVLEPTLQGTTTLPGLLAQRVAEHPEAIAVAYRDDKLTFRELASRSAALADYLEHLGVSADDCVGLFVEPSIDLMVGAWGILNAGAAYLPLSPEYPEDRLRYMIENSETKIILAQQRLVSRLRELAPKDVTIVTLRESEAFVRPEGTEAPAARSARPDTLAYVIYTSGSTGKPKGVMIEHRSIVNQLGWLRETYAIDRSKVILQKTPMSFDAAQWEILSPANGATVVMGAPGVYADPEGLIETIVKHNVTTLQCVPTLLQGLIDTEKFPECVSLQQIFSGGEALSRLLAIQTTQEMPGRALINVYGPTETTINSSSFPVDPADLDEGPQSISIGSPVHGTTYHILDKETLKPVGVGEIGELYIGGIQLARGYLHRDDLTAERFLEIELEEGAEPVRLYKTGDLGQWNNDGTVQFAGRADNQVKLRGYRVELDEISLAIENHDWVRNAAVIVKNDGRTGFQNLIACIELSEKEAALMDQGNHGSHHASKKSKLQVKAQLSNPGLRDDAELAARPAFDLEGAEPTPEQRARVFARKTYRFYEGGAVTQADLLGLLGATVTAGYSRKAADLAPAELGQILRWFGQYISEERLLPKYGYASPGALYATQMYFELEGVGGLKPGYYYYQPVRHQLVLISEREATGKATAQIHFIGKKSGIEPVYKNNILEVLEIETGHMVGLFEQILPAYGLDIHDRAYEPAVKDLLDVADEDYYLGTFELVPHAGARDDQAEVYVQTHGGKVAGLPEGQYRYENGELTRFSDDIVLKKHVIAINQSVYQAASFGISVYSRAEEEWLKYITLGKKLQHLMMNGLNLGFMSSGYSSKTGNPLPASRRMDAVLGANGVDSAPMYFFVGGRISDEQIGHEGMREDSVHMRGPAELIRDDLVSFLPDYMIPNRVVVFDRLPLSANGKIDVKALAASDQVNAELVERPHVAPRTEFEQRLAALWEQVLQVERVGLNDNFFALGGHSLLAVSLAGRIRETFDVSIKLHDFLLMQTLGELADFMRREVAQESSRFVRLHAETGKARPVICWPGLGGYPMNLRSLAGEIGLGRSFYGVQSYGINEGETPYETITEMAKKDIEALKEIQPAGPYTLWGYSFGARVAFETAYQLEQAGEKVDNLFLIAPGSPKVRAENGKVWGREASFANRGYTTILFSVFTGTISGPDLDRCLETVTDEASFAEFISELKGIDVDLARRIISVVGQTYEFEYSFHELAERTLQAPISIFKAVGDDYSFLENSSGYSAEPPTVIDLDADHYSLLREDIGELVKHIRYLLGE |  |  |  |  | ~5
slPvdD2: mBpsA with T-domain from second module of pvdD of P. aeruginosa PAO1; SEQ ID NO: 7 (protein) MTLQETSVLEPTLQGTTTLPGLLAQRVAEHPEAIAVAYRDDKLTFRELASRSAALADYLEHLGVSADDCVGLFVEPSIDLMVGAWGILNAGAAYLPLSPEYPEDRLRYMIENSETKIILAQQRLVSRLRELAPKDVTIVTLRESEAFVRPEGTEAPAARSARPDTLAYVIYTSGSTGKPKGVMIEHRSIVNQLGWLRETYAIDRSKVILQKTPMSFDAAQWEILSPANGATVVMGAPGVYADPEGLIETIVKHNVTTLQCVPTLLQGLIDTEKFPECVSLQQIFSGGEALSRLLAIQTTQEMPGRALINVYGPTETTINSSSFPVDPADLDEGPQSISIGSPVHGTTYHILDKETLKPVGVGEIGELYIGGIQLARGYLHRDDLTAERFLEIELEEGAEPVRLYKTGDLGQWNNDGTVQFAGRADNQVKLRGYRVELDEISLAIENHDWVRNAAVIVKNDGRTGFQNLIACIELSEKEAALMDQGNHGSHHASKKSKLQVKAQLSNPGLRDDAELAARPAFDLEGAEPTPEQRARVFARKTYRFYEGGAVTQADLLGLLGATVTAGYSRKAADLAPAELGQILRWFGQYISEERLLPKYGYASPGALYATQMYFELEGVGGLKPGYYYYQPVRHQLVLISEREATGKATAQIHFIGKKSGIEPVYKNNILEVLEIETGHMVGLFEQILPAYGLDIHDRAYEPAVKDLLDVADEDYYLGTFELVPHAGARDDQAEVYVQTHGGKVAGLPEGQYRYENGELTRFSDDIVLKKHVIAINQSVYQAASFGISVYSRAEEEWLKYITLGKKLQHLMMNGLNLGFMSSGYSSKTGNPLPASRRMDAVLGANGVDSAPMYFFVGGRISDEQIGHEGMREDSVHMRGPAELIRDDLVSFLPDYMIPNRVVVFDRLPLSANGKIDVKALAASDQVNAELVERPYRAPGSELEQRIAAIWAEILGVERVGLDDNFFELGGHSLLLLMLKERIGDTCQATLSISQLMTHASVAEQAACIEREVAQESSRFVRLHAETGKARPVICWPGLGGYPMNLRSLAGEIGLGRSFYGVQSYGINEGETPYETITEMAKKDIEALKEIQPAGPYTLWGYSFGARVAFETAYQLEQAGEKVDNLFLIAPGSPKVRAENGKVWGREASFANRGYTTILFSVFTGTISGPDLDRCLETVTDEASFAEFISELKGIDVDLARRIISVVGQTYEFEYSFHELAERTLQAPISIFKAVGDDYSFLENSSGYSAEPPTVIDLDADHYSLLREDIGELVKHIRYLLGE |  |  |  |  | ~5
